Experimental data as given in article PMC10723142, “Structures of the P. aeruginosa FleQ-FleN master regulators reveal large-scale conformational switching in motility and biofilm control” (Proceedings of the National Academy of Sciences of the …, 2023).

B1: full-length untagged FleQ (FleQ^FL) (natural protein)
chain: not shown
notes: FleQ, P. aeruginosa PAO1 (amplified from genomic DNA), residues 1-490 covering the full-length protein; untagged, from pRSFDuet1*; also called FleQ^1-490; wild-type FleQ; source: E. coli BL21 Star (DE3), coexpressed with His6-FleN variants; in lysate (IMAC co-purification) and purified as complex (IMAC, SEC) for cryo-EM
B2: full-length FleN^D48A (His6 tag cleaved) (natural protein)
chain: MKQMGSMHPVQVIAVTGGKGGVGKTNVSVNLALALADLGRRVMLLDAALGLANVDVLLGLTPKRTLADVIEGRCELRDVLLLGPGGVRIVPAASGTQSMVHLSPMQHAGLIQAFSDISDNLDVLVVDTAAGIGDSVVSFVRAAQEVLLVVCDEPTSITDAYALIKLLNRDHGMTRFRVLANMAHSPQEGRNLFAKLTKVTDRFLDVALQYVGVIPYDESVRKAVQKQRAVYEAFPRSKASLAFKAVAQKVDSWPLPANPRGHLEFFVERLVQHPATGSAV
notes: FleN, P. aeruginosa PAO1, full-length with D48A; pProEx-Htb-cloned, tag cleaved by HRV3c protease; source: E. coli BL21 Star (DE3), coexpressed with FleQ^REC-AAA+, purified as complex (IMAC, HRV3c cleavage, SEC); not shown: His6, N-terminal, cleaved
B3: His6-tagged full-length FleN^D48A (tag not cleaved) (natural protein)
chain: MKQMGSMHPVQVIAVTGGKGGVGKTNVSVNLALALADLGRRVMLLDAALGLANVDVLLGLTPKRTLADVIEGRCELRDVLLLGPGGVRIVPAASGTQSMVHLSPMQHAGLIQAFSDISDNLDVLVVDTAAGIGDSVVSFVRAAQEVLLVVCDEPTSITDAYALIKLLNRDHGMTRFRVLANMAHSPQEGRNLFAKLTKVTDRFLDVALQYVGVIPYDESVRKAVQKQRAVYEAFPRSKASLAFKAVAQKVDSWPLPANPRGHLEFFVERLVQHPATGSAV
notes: pProEx-Htb-cloned; source: E. coli BL21 Star (DE3), coexpressed with FleQ^FL, purified as complex (IMAC, SEC), without tag cleavage; not shown: His6, N-terminal, kept
B4: FleQ receiver and ATPase domain tandem (FleQ^REC-AAA+) (domain or fragment)
chain: not shown
notes: FleQ, P. aeruginosa PAO1, residues 1-394 (REC and AAA+ domains); untagged, from pRSFDuet1*; also called FleQ^1-394; HTH-truncated FleQ; source: E. coli BL21 Star (DE3), coexpressed with His6-FleN variants; in lysate (IMAC co-purification) and purified as complex (IMAC, SEC) for cryo-EM

Experiments:
[1] = target: B3; experiment: cryo-EM structure; c-di-GMP-free complex, coexpressed and co-purified (IMAC, SEC), with AppCp (100 uM); 20 mM HEPES pH 8.0, 250 mM NaCl, 2 mM MgCl2, 2% glycerol; C2 symmetry; details: both partners purified
[2] = target: the molecule itself; experiment: as above
[3] = target: the molecule itself; experiment: cryo-EM structure; c-di-GMP-bound complex, coexpressed and co-purified (IMAC, tag cleavage, SEC with 2 uM c-di-GMP); 200 uM AppCp and 4 uM c-di-GMP before grid preparation
[4] = target: B4; experiment: as above; details: both partners purified
[5] = target: B1; experiment: cryo-EM structure; c-di-GMP-free complex, coexpressed and co-purified (IMAC, SEC), with AppCp (100 uM); 20 mM HEPES pH 8.0, 250 mM NaCl, 2 mM MgCl2, 2% glycerol; C2 symmetry; details: both partners purified
[6] = target: B2; experiment: cryo-EM structure; c-di-GMP-bound complex, coexpressed and co-purified (IMAC, tag cleavage, SEC with 2 uM c-di-GMP); 200 uM AppCp and 4 uM c-di-GMP before grid preparation; details: both partners purified

In the case of B1, the “stoichiometry N” value [1] is reported as 2 FleQ per FleN (4:2) and the binding result [2] is reported as “binds”.

B2: binds [3]; binds [4].

B3: binds [5]; binds [2].

In the case of B4, the “stoichiometry N” value [6] is reported as 1.5 FleQ per FleN (3:2) and the binding result [3] is reported as “binds”.
